Reference: paper PMC8956578, “The inner side of yeast PCNA contributes to genome stability by mediating interactions with Rad18 and the replicative DNA polymerase δ” (Scientific Reports, 2022)

Biological target: the molecule itself
Assay: native gel or EMSA; increasing concentrations of purified wild-type and mutant PCNA on a 12% non-denaturing polyacrylamide gel

B1: wild-type PCNA (proliferating cell nuclear antigen), purified (natural protein, yeast, UniProt P15873 1-258, looked up)
chain: MLEAKFEEASLFKRIIDGFKDCVQLVNFQCKEDGIIAQAVDDSRVLLVSLEIGVEAFQEYRCDHPVTLGMDLTSLSKILRCGNNTDTLTLIADNTPDSIILLFEDTKKDRIAEYSLKLMDIDADFLKIEELQYDSTLSLPSSEFSKIVRDLSQLSDSINIMITKETIKFVADGDIGSGSVIIKPFVDMEHPETSIKLEMDQPVDLTFGAKYLLDIIKGSSLSDRVGIRLSSEAPALFQFDLKSGFLQFFLAPKFNDEE
notes: PCNA (POL30), yeast; open reading frame cloned in N-terminal fusion with GST; also called Pol30; source: protease deficient yeast strain BJ5464, galactose inducible promoter (pBJ842 backbone), purified
B1 was tested. Which “stoichiometry N” value did it give?
The value was 3.
